In patent US20070292907A1, “Compositions and method for regulating ubiquitin-specific processing proteases” (priority 2005, published 2007):

Tests used:
Test in all cases: covalent modification by UbVS (immunoblot of UbVS adducts)
full-length USP14 = biological target: T1, full-length USP14 (Homo sapiens, UniProt P54578); assay type: biochemical
T1 construct: 3.5 μM full-length USP14 or USP14-AUBL (91-494) was incubated with or without 157 nM bovine 19S complex (PA700); GST (N); made in house
Experimental: (§1) Ubiquitin vinylsulfone (UbVS) is a specific covalent inhibitor of a large subset of deubiquitinating enzymes, and thus can be used as an active site-directed probe for the detection of DUB activity (Borodovsky et al. (2001) supra). In order to examine the effect of proteasome association on the activity of USP14, the purified recombinant USP14 proteins were pre-incubated with or without the 19S RP and then assayed for covalent modification by UbVS.
(§2) UbVS was prepared as previously described (Borodovsky et al. (2001) supra). […] UbVS was then added to the sample to give approximately 1:1 stoichiometry with the 19S complex. Incubation was continued for another hour and then stopped by the addition of 2×SDS sample buffer. The reaction mixtures were resolved by 14% SDS-PAGE, transferred to nitrocellulose membrane, and the UbVS adducts were detected with mouse monoclonal anti-ubiquitin antibody (P4D1) (Santa Cruz).

USP14-ΔUBL (91-494) = biological target: T2, USP14-ΔUBL (91-494) (Homo sapiens, UniProt P54578); assay type: biochemical; conditions: both in the absence and presence of the 19S regulatory particle; FIG. 5C lanes 1 and 2
T2 construct: 3.5 μM full-length USP14 or USP14-AUBL (91-494) was incubated with or without 157 nM bovine 19S complex (PA700); GST (N); made in house
Experimental: as §1, §2

UCH37 = biological target: T3, UCH37 (Bos taurus, UniProt Q9XSJ0); assay type: biochemical, bovine; conditions: reactions in the presence of 19S RP, relative to the USP14 adduct; FIG. 5C lanes 2 and 4
T3 construct: UCH37 was present in the reactions as a stoichiometric component of the 19S RP complex; from tissue; host or cells: bovine 19S complex (PA700), gift
T3 sequence (Q9XSJ0 1-328): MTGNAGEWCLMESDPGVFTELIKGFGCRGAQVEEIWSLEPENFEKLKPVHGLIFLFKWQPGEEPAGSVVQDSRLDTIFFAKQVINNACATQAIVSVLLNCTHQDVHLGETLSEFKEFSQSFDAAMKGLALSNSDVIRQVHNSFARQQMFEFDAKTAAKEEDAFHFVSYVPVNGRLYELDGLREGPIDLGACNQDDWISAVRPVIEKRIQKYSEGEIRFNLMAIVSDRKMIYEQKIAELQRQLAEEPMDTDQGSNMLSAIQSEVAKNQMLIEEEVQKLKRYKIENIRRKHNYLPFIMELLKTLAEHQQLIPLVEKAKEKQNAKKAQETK
T3 sequence (A1L5A6 1-407 partner): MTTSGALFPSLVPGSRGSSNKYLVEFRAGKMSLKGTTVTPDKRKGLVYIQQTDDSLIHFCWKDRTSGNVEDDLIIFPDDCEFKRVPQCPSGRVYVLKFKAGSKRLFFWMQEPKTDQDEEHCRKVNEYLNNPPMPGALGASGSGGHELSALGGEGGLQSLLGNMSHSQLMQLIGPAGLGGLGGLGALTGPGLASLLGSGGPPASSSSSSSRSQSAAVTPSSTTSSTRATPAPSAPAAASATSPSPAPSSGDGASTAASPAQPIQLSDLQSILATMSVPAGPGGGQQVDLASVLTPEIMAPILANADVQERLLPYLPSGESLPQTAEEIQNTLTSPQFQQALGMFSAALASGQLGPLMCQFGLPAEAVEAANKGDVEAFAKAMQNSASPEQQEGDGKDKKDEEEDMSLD
Experimental: Two factors contribute to this observation.
as §2

T1 sequence (P54578 whole entry): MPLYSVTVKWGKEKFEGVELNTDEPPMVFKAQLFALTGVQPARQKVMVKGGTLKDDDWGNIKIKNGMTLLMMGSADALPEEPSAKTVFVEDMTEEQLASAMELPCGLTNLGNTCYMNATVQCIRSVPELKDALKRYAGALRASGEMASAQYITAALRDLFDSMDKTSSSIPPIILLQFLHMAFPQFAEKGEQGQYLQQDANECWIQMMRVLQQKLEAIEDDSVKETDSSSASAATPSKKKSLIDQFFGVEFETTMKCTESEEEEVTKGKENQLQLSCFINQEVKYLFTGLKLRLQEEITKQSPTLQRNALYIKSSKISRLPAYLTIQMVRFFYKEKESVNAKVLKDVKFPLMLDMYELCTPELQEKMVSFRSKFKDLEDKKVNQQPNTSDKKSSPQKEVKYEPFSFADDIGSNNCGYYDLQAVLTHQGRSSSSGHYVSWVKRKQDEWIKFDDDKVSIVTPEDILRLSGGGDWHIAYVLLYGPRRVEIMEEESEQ
T2 sequence (P54578 91-494, stated change not applied): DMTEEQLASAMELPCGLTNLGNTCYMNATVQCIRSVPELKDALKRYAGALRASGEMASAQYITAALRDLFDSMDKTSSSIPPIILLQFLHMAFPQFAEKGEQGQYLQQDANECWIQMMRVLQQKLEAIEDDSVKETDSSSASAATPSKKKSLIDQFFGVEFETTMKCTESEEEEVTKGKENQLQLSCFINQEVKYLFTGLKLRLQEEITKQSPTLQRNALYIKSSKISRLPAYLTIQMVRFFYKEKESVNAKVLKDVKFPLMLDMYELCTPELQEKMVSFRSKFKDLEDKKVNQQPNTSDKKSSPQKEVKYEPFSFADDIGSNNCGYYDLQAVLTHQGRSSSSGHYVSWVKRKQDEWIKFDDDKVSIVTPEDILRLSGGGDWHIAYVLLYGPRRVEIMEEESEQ

Ubiquitin vinylsulfone [UbVS] was tested, and the USP14-UbVS complex formation (full-length USP14; full-length USP14 by itself, without 19S RP, FIG. 5C lane 3) was “no detectable USP14-UbVS complex formation”, the USP14-UbVS complex formation (full-length USP14; full-length USP14 with 19S regulatory particle added, FIG. 5C lane 4) was “strong USP14-UbVS band” and the “activity toward UbVS” value (USP14-ΔUBL (91-494)) was “extremely low activity”. The UCH37-UbVS adduct detected (UCH37) was “only a trace amount”.
